According to article PMC2836553:
Read-outs that look alike come from different tables or passages of the source.

T1: XPF-Δnuc (HhH2 domain) (Sulfolobus solfataricus P2, UniProt Q7LXL5 =M+148-233, internal_change)
T1 sequence: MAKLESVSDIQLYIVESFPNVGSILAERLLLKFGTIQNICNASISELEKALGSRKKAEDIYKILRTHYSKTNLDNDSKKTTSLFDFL

T2: XPF-wt (Saccharolobus (Sulfolobus) solfataricus, UniProt Q7LXL5 1-233)
T2 sequence: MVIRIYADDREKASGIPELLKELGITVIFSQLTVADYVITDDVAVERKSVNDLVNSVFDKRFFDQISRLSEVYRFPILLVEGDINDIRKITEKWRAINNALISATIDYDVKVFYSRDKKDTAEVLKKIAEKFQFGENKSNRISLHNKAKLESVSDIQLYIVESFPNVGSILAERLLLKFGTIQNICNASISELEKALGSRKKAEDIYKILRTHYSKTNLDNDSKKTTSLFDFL

T3: XPF-wt;PCNA heterotrimer (Saccharolobus (Sulfolobus) …, UniProt Q7LXL5;P57766;Q97Z84;P57765 1-233;1-249;1-245;1-244, |)
T3 sequence 1: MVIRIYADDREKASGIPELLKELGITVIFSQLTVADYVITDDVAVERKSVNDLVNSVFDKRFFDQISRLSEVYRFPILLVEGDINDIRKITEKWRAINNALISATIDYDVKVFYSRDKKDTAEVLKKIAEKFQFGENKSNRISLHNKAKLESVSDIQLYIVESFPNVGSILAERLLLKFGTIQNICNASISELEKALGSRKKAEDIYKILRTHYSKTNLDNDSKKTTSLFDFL
T3 sequence 2: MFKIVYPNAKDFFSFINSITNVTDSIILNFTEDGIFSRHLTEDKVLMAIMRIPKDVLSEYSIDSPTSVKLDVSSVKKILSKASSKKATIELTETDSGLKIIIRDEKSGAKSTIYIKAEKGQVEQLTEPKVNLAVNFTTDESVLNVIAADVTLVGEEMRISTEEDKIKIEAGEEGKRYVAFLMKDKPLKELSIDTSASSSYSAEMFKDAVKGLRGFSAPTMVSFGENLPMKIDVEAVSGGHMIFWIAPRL
T3 sequence 3: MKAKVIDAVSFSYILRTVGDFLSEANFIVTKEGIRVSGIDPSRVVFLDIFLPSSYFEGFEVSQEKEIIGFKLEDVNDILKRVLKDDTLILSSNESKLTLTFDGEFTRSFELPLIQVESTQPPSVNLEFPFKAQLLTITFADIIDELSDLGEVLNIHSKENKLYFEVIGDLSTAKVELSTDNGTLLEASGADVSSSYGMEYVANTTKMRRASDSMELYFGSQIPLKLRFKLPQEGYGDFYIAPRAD
T3 sequence 4: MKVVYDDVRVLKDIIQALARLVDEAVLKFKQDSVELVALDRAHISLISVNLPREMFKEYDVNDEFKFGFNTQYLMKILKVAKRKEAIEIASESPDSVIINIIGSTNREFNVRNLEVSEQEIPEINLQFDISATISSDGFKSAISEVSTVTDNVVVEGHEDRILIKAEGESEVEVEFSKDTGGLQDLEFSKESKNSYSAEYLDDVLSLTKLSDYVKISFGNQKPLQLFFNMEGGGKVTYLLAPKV

T4: XPF-Δnuc (HhH2 domain);PCNA heterotrimer (Sulfolobus solfataricus P2;Sulfolobus …, UniProt Q7LXL5;P57766;Q97Z84;P57765 =M+148-233;1-249;1-245;1-244, internal_change|)
T4 sequence 1: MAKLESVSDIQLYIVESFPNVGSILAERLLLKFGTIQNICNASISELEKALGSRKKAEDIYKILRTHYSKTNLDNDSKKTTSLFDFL
T4 sequence 2: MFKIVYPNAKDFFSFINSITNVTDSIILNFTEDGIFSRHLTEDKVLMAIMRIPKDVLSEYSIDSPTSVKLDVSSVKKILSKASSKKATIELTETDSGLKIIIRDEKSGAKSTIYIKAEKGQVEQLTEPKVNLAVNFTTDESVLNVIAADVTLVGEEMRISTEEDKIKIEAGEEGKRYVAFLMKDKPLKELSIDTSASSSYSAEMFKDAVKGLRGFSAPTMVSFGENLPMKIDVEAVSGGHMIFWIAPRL
T4 sequence 3: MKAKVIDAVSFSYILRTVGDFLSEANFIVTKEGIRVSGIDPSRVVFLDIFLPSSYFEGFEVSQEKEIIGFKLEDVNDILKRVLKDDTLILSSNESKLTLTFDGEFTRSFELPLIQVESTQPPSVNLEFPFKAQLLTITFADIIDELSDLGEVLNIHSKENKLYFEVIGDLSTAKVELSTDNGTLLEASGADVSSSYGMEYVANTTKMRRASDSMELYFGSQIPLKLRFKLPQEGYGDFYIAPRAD
T4 sequence 4: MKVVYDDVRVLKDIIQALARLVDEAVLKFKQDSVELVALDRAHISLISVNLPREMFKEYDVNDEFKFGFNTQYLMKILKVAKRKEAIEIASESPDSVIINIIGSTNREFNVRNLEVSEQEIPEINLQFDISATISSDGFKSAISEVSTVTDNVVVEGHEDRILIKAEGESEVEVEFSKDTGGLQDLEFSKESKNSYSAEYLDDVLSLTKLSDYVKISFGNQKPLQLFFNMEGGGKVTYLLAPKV

T5: XPF-ΔPIP (Δ6 XPF) (Sulfolobus solfataricus, UniProt Q7LXL5 1-227)
T5 sequence: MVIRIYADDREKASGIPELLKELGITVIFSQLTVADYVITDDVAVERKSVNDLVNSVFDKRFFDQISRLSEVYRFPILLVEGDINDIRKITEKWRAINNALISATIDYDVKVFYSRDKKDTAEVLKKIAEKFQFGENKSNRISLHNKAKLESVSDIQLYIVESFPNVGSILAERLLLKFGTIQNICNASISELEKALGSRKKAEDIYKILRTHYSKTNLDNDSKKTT


Experiments:
Test in all cases: FRET
XPF-Δnuc (HhH2 domain) [1] = molecular target: T1, XPF-Δnuc (HhH2 domain)
XPF-wt [2] = molecular target: T2, XPF-wt
XPF-wt;PCNA heterotrimer [3] = molecular target: T3, XPF-wt;PCNA heterotrimer
[4] = molecular target: T4, XPF-Δnuc (HhH2 domain);PCNA heterotrimer
XPF-ΔPIP (Δ6 XPF) [5] = molecular target: T5, XPF-ΔPIP (Δ6 XPF)
XPF-ΔPIP (Δ6 XPF) [6] = molecular target: T5, XPF-ΔPIP (Δ6 XPF); remark: listed apart in the source
XPF-wt [7] = molecular target: T2, XPF-wt; remark: listed apart in the source
XPF-wt;PCNA heterotrimer [8] = molecular target: T3, XPF-wt;PCNA heterotrimer; remark: listed apart in the source
XPF-ΔPIP (Δ6 XPF) [9] = molecular target: T5, XPF-ΔPIP (Δ6 XPF); remark: listed apart in the source
XPF-Δnuc (HhH2 domain) [10] = molecular target: T1, XPF-Δnuc (HhH2 domain); remark: listed apart in the source

| Binder | Kd (XPF-Δnuc (HhH2 domain) [1]) [nM] | Kd (XPF-wt [2]) [nM] | Kd (XPF-wt;PCNA heterotrimer [3]) [nM] | Kd [4] [nM] | Kd (XPF-ΔPIP (Δ6 XPF) [5]) [nM] | Kd (XPF-ΔPIP (Δ6 XPF) [6]) [nM] | Kd (XPF-wt [7]) [nM] | Kd (XPF-wt;PCNA heterotrimer [8]) [nM] | Kd (XPF-ΔPIP (Δ6 XPF) [9]) [nM] | Kd (XPF-Δnuc (HhH2 domain) [10]) [nM] |
| --- | --- | --- | --- | --- | --- | --- | --- | --- | --- | --- |
| 3' flap, three vectors (global fit) (structured_DNA, dye positions as in Flap-12, Flap-13 and Flap-23) DNA 1: AGCCCGACAGCAGTCAGAGCTTGCTAGGACGGACGGT DNA 2: ACCGTCCGTCCTAGCAAGCATTTTTTT DNA 3: TCTGACTGCTGTCGGGCT | 8000 ± 1000 | 5300 ± 600 | 60 ± 10 | 110 ± 10 | 3100 ± 500 |  |  |  |  |  |
| Flap-23 (structured_DNA, 3' Cy3 on B strand; internal fluorescein-dT at T10 of C strand) DNA 1: AGCCCGACAGCAGTCAGAGCTTGCTAGGACGGACGGT DNA 2: ACCGTCCGTCCTAGCAAGCATTTTTTT DNA 3: TCTGACTGCTGTCGGGCT |  |  |  |  |  | 1600 ± 200 | 5000 ± 600 | 50 ± 10 | 1800 ± 300 |  |
| Flap-13 (structured_DNA, amino-C6-dT at T9 of B strand; internal fluorescein-dT at T10 of C strand) DNA 1: AGCCCGACAGCAGTCAGAGCTTGCTAGGACGGACGGT DNA 2: ACCGTCCGTCCTAGCAAGCATTTTTTT DNA 3: TCTGACTGCTGTCGGGCT |  |  |  |  |  |  | 9200 ± 3000 | 60 ± 10 |  | 8000 ± 2000 |
| Flap-12 (structured_DNA, internal fluorescein-dT at T9 of B strand; 3' amino modifier on B strand) DNA 1: AGCCCGACAGCAGTCAGAGCTTGCTAGGACGGACGGT DNA 2: ACCGTCCGTCCTAGCAAGCATTTTTTT DNA 3: TCTGACTGCTGTCGGGCT |  |  |  |  |  |  | 2600 ± 400 |  | 1600 ± 600 |  |
